According to paper PMC12959407 (Science Advances, 2026):
Where “and” joins values, the source holds several entries; their conditions need not be identical. Equal entries are not always repeated.

Biological target: the molecule itself
Test: cryo-EM structure; single-particle cryo-EM of purified proteins; mHsp60 10 uM and mHsp10 8 uM mixed in 20 mM tris-HCl pH 7.7, 20 mM KCl, 10 mM MgCl2, 2 mM ATP; incubated 30 s to 30 min before vitrification

B1: recombinant WT human mitochondrial Hsp60 (mHsp60), mature form (natural protein)
chain: GSAKDVKFGADARALMLQGVDLLADAVAVTMGPKGRTVIIEQSWGSPKVTKDGVTVAKSIDLKDKYKNIGAKLVQDVANNTNEEAGDGTTTATVLARSIAKEGFEKISKGANPVEIRRGVMLAVDAVIAELKKQSKPVTTPEEIAQVATISANGDKEIGNIISDAMKKVGRKGVITVKDGKTLNDELEIIEGMKFDRGYISPYFINTSKGQKCEFQDAYVLLSEKKISSIQSIVPALEIANAHRKPLVIIAEDVDGEALSTLVLNRLKVGLQVVAVKAPGFGDNRKNQLKDMAIATGGAVFGEEGLTLNLEDVQPHDLGKVGEVIVTKDDAMLLKGKGDKAQIEKRIQEIIEQLDVTTSEYEKEKLNERLAKLSDGVAVLKVGGTSDVEVNEKKDRVTDALNATRAAVEEGIVLGGGCALLRCIPALDSLTPANEDQKIGIEIIKRTLKIPAMTIAKNAGVEGSLIVEKIMQSSSEVGYDAMAGDFVNMVEKGIIDPTKVVRTALLDAAGVASLLTTAEVVVTEIPKEEKDPGMGAMGGMGGGMGGGMF
notes: additional Gly-Ser kept at the N terminus after TEV cleavage; human mitochondrial Hsp60 without the 26-residue mitochondrial targeting signal of the 573-residue precursor; mature protein of 547 residues beginning with AKDVKFG; numbers count on: the mature protein; Forms heptameric rings; seven copies in single rings and half-footballs, fourteen in double rings, bullets and footballs; also called …
- stoichiometry N: 7 and 14
